Assay results: publication PMC4346194

Assays:
Test in all cases: pull-down
[1] = biological target: GST-tagged ΔIBB-importin α7 (human) (UniProt O60684)
[2] = biological target: GST-tagged FL-importin α7 (human) (UniProt O60684)
[3] = biological target: GST-tagged ΔIBB-importin α1 (mouse) (UniProt P52293)
[4] = biological target: GST-tagged ΔIBB-importin α3 (human) (UniProt O00629)
[5] = biological target: GST-tagged FL-importin α1 (mouse) (UniProt P52293)
[6] = biological target: GST-tagged FL-importin α3 (human) (UniProt O00629)
[7] = biological target: GST-tagged IBB3-importin α1 (human | mouse) (UniProt O00629)
[8] = biological target: GST-tagged IBB1-importin α3 (mouse | human) (UniProt P52293)

Chain of MBP-tagged PB2-biNLS (res. 738-759) (P31345 738-759 limits assumed): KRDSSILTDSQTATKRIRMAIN
Chain of GST-tagged ΔIBB-importin α7 (human) (O60684 59-536, stated change not applied): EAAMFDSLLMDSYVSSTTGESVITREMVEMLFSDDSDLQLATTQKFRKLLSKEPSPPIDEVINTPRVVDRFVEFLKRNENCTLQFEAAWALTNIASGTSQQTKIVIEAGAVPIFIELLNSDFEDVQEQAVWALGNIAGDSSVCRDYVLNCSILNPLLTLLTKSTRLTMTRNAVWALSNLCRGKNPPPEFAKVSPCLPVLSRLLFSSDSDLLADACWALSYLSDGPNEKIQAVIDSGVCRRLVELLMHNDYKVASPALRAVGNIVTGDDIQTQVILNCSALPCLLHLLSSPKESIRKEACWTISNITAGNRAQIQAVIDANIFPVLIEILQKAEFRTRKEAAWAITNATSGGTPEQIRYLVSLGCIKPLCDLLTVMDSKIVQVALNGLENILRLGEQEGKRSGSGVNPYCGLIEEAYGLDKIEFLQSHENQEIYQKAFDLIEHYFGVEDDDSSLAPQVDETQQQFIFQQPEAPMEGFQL
Chain of GST-tagged FL-importin α3 (human) (O00629 whole entry): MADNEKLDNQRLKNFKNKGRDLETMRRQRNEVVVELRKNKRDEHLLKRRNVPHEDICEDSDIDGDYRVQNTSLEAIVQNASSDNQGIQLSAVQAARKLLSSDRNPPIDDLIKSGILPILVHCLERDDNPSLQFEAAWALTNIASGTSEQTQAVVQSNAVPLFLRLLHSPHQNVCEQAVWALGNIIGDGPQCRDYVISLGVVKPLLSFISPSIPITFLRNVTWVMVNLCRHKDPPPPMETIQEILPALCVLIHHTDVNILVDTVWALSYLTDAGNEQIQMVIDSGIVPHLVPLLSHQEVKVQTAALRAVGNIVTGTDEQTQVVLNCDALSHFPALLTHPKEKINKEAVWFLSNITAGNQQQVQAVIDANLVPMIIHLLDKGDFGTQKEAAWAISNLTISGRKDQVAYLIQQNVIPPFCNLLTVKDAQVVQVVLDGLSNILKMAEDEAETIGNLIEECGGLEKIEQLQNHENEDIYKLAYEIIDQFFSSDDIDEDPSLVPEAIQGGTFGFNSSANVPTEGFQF

MBP-tagged PB2-biNLS (res. 738-759) (from UniProt P31345 738-759) (peptide)
percent of importin α bound to cargo [1]: 81%
percent of importin α bound to cargo [2]: 21%
percent of importin α bound to cargo [3]: 51%
percent of importin α bound to cargo [4]: 27%
percent of importin α bound to cargo [5]: 7%
percent of importin α bound to cargo [6]: 7%

MBP-tagged nucleoplasmin NLS (NP-NLS, res. 155-170) (from UniProt P05221 155-170) (peptide)
percent of importin α bound to cargo [4]: 45%
percent of importin α bound to cargo [7]: 57%
percent of importin α bound to cargo [8]: 12%

MBP-tagged PB2-NLD (res. 678-759) (from UniProt P31345 678-759) (domain or fragment)
percent of importin α bound to cargo [1]: 100%
percent of importin α bound to cargo [2]: 62%
percent of importin α bound to cargo [3]: 100%
percent of importin α bound to cargo [4]: 100%
percent of importin α bound to cargo [5]: 32%
percent of importin α bound to cargo [7]: 70%
